Measured values as given in patent publication US8697369B2, “Method for screening a test substance for activating a receptor associated with FGF 21 activity” (National Institute of Advanced Industrial Science and …, priority 2007, dated 2014).

Molecular target: T1, betaKlotho-expressing BaF3 cells (Mus musculus, UniProt Q99N32)
T1 construct: the entire-length cDNA of mouse betaKlotho was cloned into an animal cell expression vector; expressed in transfected cells; host or cells: BaF3 (mouse pro-B) cells
T1 sequence (Q99N32 1-1043): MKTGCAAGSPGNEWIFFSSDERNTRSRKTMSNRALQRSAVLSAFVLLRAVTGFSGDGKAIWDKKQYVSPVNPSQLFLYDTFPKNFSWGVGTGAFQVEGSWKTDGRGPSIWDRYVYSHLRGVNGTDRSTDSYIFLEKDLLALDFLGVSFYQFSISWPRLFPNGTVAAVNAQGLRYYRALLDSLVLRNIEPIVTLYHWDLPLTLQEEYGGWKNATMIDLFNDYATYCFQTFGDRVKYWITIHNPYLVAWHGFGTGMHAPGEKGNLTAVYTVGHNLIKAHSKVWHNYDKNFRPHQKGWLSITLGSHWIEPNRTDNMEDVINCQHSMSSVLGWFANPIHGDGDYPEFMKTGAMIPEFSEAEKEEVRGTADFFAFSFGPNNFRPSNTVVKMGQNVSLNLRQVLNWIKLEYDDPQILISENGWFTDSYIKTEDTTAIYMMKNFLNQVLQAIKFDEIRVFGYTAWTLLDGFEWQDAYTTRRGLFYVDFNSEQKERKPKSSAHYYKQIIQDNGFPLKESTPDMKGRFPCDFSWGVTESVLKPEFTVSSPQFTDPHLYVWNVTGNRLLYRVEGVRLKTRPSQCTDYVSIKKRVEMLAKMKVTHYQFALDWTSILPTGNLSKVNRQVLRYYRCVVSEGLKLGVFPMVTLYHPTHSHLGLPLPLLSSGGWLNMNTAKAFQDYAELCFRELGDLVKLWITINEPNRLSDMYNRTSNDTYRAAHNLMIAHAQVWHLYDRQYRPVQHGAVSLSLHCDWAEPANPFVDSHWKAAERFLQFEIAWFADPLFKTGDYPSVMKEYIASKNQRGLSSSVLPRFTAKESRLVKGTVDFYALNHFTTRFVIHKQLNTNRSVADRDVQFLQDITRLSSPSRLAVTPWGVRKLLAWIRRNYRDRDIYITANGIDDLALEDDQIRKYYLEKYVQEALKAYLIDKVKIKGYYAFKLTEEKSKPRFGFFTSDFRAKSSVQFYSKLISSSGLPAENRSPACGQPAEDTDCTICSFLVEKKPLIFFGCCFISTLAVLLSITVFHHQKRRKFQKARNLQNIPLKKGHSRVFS
Assay: DNA synthesis (thymidine incorporation) in BaF3 cells expressing only betaKlotho
Assay type: cell-based
Details: presence or absence of heparin
Experimental: A commonly used measurement method is a cell growth stimulating activity measurement method described in Ornitz, D. M., Xu, J., Colvin, J. S., McEwen, D. G., MacArthur, C. A., Coulier, F., Gao, G. and Goldfarb, M. (1996) Receptor specificity of the fibroblast growth factor family. J Biol Chem, 271, 15292-15297. The summary thereof is as follows. FGF used as a measurement target is added to a culture solution containing a cultured cell having an FGF receptor on the surface thereof, and the obtained mixture is cultured for a certain period of time. Thereafter, a labeled thymidine is added to the culture solution, followed by further culture for a certain period of time. By measuring the amount of the labeled thymidine incorporated into polymeric DNA during the culture, the degree of FGF to activate DNA synthesis is evaluated. (In the present invention as well, this method was adopted when the activity of FGF21 was measured in Examples 4, 5, 6, 8, 9, and 10.) […]
Immediately after inoculation, BaF3 cells that had expressed each clone and only FGFR1c were stimulated by addition of FGF21 (open bar) or PBS (filled bar) used as a control in the presence of heparin, and they were then cultured for 42 hours. […] Thereafter, the amount of thymidine incorporated into the cells was measured, so as to evaluate DNA synthesis. […]

B1: FGF21: fibroblast growth factor 21; mouse-derived protein used in Examples 1-7 and 10-13 (protein)
chain: AYPIPDSSPLLQFGGQVRQRYLYTDDDQDTEAHLEIREDGTVVGAAHRSPESLLELKALKPGVIQILGVKASRFLCQQPDGALYGSPHFDPEACSFRELLLEDGYNVYQSEAHGLPLRLPQKDSPNQDATSWGPVRFLPMPGLLHEPQDQAGFLPPEPPDVGSSDPLSMVEPLQGRSPSYAS
  DNA synthesis (thymidine incorporated into the cells): did not react with FGF21
